Reference: PMC8256032, “Regulation of Dishevelled DEP domain swapping by conserved phosphorylation sites” (Proceedings of the National Academy of Sciences of the …, 2021)

Legend:
SNAP-FZD5 = SNAP-FZD5 (UniProt Q13467); experiment: SNAP-FZD5-dependent recruitment of DEP-GFP to the plasma membrane (cell scoring); conditions: n = 100 cells scored in each case, read off a plot; for other: % of cells with strong recruitment (category 'strong'): parent: est. 98
[1] = molecular target: the molecule itself; experiment: SEC-MALS; unfractionated purified Lip-DEP_(402–510), Lip tag kept; Tris-buffered saline (30 mM Tris, 300 mM NaCl, NaN3 0.03%, pH 7.4), Superdex S-200 10/300
[2] = molecular target: the molecule itself; experiment: SEC-MALS; cleaved DEP monomer incubated with urea (0 to 5 M for wt; 3 M for the mutants) for 8 h at 25 °C, then SEC-MALS in Tris-buffered saline (30 mM Tris, 300 mM NaCl, pH 7.4); monomer to domain-swapped dimer

Sequence of SNAP-FZD5 (Q13467 27-585): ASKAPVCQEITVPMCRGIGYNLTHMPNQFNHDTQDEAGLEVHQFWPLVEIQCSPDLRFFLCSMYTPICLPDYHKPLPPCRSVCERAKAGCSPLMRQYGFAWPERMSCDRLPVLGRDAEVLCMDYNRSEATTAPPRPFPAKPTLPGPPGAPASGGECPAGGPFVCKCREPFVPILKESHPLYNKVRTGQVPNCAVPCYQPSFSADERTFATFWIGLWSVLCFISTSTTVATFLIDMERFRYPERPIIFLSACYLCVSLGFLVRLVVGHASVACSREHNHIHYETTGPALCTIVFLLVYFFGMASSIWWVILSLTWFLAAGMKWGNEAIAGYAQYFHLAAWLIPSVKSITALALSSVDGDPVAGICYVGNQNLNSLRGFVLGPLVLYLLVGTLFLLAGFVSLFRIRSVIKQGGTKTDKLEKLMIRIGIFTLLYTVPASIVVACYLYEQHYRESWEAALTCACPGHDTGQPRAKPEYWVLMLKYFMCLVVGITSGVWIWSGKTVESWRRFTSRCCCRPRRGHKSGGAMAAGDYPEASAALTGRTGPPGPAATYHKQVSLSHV

| Molecule | other: % of cells with strong recruitment (category 'strong') (SNAP-FZD5) | binding result [1] | other results |
| --- | --- | --- | --- |
| DEP tagged with GFP (DEP-GFP), wild type (from UniProt O14641) S435E | 99 % of cells |  |  |
| DEP tagged with GFP (DEP-GFP), wild type (from UniProt O14641) L445E |  |  | other: % of cells with no recruitment (category 'none') (SNAP-FZD5): 94 % of cells |
| DEP tagged with GFP (DEP-GFP), wild type (from UniProt O14641) S418E | 100 % of cells |  |  |
| DEP tagged with GFP (DEP-GFP), wild type (from UniProt O14641) S418A | 98 % of cells |  |  |
| DEP tagged with GFP (DEP-GFP), wild type (from UniProt O14641) S435A | 97 % of cells |  |  |
| Lipoyl-tagged DEP (Lip-DEP_(402–510)), wild type (domain or fragment, human, UniProt O14641 402-510, looked up, also called Lip-DEP402 to 510; source: E. coli BL21-CodonPlus(DE3)-RIL, purified (NiNTA, SEC)) ITSGSSLPDGCEGRGLSVHTDMASVTKAMAAPESGLEVRDRMWLKITIPNAFLGSDVVDWLYHHVEGFPERREARKYASGLLKAGLIRHTVNKITFSEQCYYVFGDLSG |  |  | stoichiometry N [1]: 2 |
| Lip-DEP_(402–510) S418A (domain or fragment, human, UniProt O14641 402-510, looked up, source: E. coli BL21-CodonPlus(DE3)-RIL, purified (NiNTA, SEC)) ITSGSSLPDGCEGRGLAVHTDMASVTKAMAAPESGLEVRDRMWLKITIPNAFLGSDVVDWLYHHVEGFPERREARKYASGLLKAGLIRHTVNKITFSEQCYYVFGDLSG |  | binds |  |
| Lip-DEP_(402–510) S418E (domain or fragment, human, UniProt O14641 402-510, looked up, source: E. coli BL21-CodonPlus(DE3)-RIL, purified (NiNTA, SEC)) ITSGSSLPDGCEGRGLEVHTDMASVTKAMAAPESGLEVRDRMWLKITIPNAFLGSDVVDWLYHHVEGFPERREARKYASGLLKAGLIRHTVNKITFSEQCYYVFGDLSG |  | binds |  |
| Lip-DEP_(402–510) S435A (domain or fragment, human, UniProt O14641 402-510, looked up, source: E. coli BL21-CodonPlus(DE3)-RIL, purified (NiNTA, SEC)) ITSGSSLPDGCEGRGLSVHTDMASVTKAMAAPEAGLEVRDRMWLKITIPNAFLGSDVVDWLYHHVEGFPERREARKYASGLLKAGLIRHTVNKITFSEQCYYVFGDLSG |  | binds |  |
| Lip-DEP_(402–510) S435E (domain or fragment, human, UniProt O14641 402-510, looked up, source: E. coli BL21-CodonPlus(DE3)-RIL, purified (NiNTA, SEC)) ITSGSSLPDGCEGRGLSVHTDMASVTKAMAAPEEGLEVRDRMWLKITIPNAFLGSDVVDWLYHHVEGFPERREARKYASGLLKAGLIRHTVNKITFSEQCYYVFGDLSG |  | binds |  |
| cleaved wt DEP monomer (Lip tag removed) (domain or fragment, human, UniProt O14641 402-510, looked up, also called monomeric DEP; source: E. coli BL21-CodonPlus(DE3)-RIL, purified (NiNTA, SEC), Lip tag removed by tobacco etch virus protease) ITSGSSLPDGCEGRGLSVHTDMASVTKAMAAPESGLEVRDRMWLKITIPNAFLGSDVVDWLYHHVEGFPERREARKYASGLLKAGLIRHTVNKITFSEQCYYVFGDLSG |  |  | stoichiometry N [2]: 2 |
